PMC8028314, “Sae2 and Rif2 regulate MRX endonuclease activity at DNA double-strand breaks in opposite manners” (Cell Reports, 2021)

Molecular target: T1, Mre11-Rad50 complex (S. cerevisiae, UniProt P32829 1-692; P12753 1-1312)
T1 construct: Mre11, S. cerevisiae; Rad50, S. cerevisiae; untagged; they were not measured here; also called wild-type MR; source: Sf9 cells, purified (NiNTA, HiTrap SP HP, HiTrap Q HP); copies: 2 + 2
Assay: pull-down; MBP-Rif2-his from Sf9 lysate bound to amylose resin, washed with 1 M then 0.1 M NaCl buffer (50 mM Tris-HCl pH 7.5, 0.2% NP40, 2 mM EDTA); recombinant MR variants (1 ug) added, 1 h at 4°C; washed with 0.1 M NaCl buffer; eluted with 20 mM maltose and cleaved with PreScission protease; Ponceau (Rif2) and western blots (anti-Rad50, anti-His)
Conditions: both partners purified

T1 sequence (P32829 whole entry, chain 1 of 2): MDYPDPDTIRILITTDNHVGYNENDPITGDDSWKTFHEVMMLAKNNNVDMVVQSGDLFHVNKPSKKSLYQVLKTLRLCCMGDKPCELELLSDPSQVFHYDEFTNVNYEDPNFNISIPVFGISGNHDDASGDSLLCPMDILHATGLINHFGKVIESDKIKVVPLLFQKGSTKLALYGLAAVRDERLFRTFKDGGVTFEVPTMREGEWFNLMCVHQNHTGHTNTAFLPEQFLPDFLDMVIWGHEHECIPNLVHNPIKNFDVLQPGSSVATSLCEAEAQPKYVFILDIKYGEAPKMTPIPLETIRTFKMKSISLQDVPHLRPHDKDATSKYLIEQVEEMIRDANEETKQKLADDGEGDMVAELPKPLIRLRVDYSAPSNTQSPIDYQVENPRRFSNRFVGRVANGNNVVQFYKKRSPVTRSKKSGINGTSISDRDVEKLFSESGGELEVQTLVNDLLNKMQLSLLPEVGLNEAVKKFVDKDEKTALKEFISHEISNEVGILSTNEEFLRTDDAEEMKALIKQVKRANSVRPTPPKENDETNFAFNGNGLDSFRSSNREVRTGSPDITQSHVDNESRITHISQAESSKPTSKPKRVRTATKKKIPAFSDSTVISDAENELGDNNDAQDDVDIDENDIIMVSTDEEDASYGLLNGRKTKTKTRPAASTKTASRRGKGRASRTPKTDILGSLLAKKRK
T1 sequence (P12753 whole entry, chain 2 of 2): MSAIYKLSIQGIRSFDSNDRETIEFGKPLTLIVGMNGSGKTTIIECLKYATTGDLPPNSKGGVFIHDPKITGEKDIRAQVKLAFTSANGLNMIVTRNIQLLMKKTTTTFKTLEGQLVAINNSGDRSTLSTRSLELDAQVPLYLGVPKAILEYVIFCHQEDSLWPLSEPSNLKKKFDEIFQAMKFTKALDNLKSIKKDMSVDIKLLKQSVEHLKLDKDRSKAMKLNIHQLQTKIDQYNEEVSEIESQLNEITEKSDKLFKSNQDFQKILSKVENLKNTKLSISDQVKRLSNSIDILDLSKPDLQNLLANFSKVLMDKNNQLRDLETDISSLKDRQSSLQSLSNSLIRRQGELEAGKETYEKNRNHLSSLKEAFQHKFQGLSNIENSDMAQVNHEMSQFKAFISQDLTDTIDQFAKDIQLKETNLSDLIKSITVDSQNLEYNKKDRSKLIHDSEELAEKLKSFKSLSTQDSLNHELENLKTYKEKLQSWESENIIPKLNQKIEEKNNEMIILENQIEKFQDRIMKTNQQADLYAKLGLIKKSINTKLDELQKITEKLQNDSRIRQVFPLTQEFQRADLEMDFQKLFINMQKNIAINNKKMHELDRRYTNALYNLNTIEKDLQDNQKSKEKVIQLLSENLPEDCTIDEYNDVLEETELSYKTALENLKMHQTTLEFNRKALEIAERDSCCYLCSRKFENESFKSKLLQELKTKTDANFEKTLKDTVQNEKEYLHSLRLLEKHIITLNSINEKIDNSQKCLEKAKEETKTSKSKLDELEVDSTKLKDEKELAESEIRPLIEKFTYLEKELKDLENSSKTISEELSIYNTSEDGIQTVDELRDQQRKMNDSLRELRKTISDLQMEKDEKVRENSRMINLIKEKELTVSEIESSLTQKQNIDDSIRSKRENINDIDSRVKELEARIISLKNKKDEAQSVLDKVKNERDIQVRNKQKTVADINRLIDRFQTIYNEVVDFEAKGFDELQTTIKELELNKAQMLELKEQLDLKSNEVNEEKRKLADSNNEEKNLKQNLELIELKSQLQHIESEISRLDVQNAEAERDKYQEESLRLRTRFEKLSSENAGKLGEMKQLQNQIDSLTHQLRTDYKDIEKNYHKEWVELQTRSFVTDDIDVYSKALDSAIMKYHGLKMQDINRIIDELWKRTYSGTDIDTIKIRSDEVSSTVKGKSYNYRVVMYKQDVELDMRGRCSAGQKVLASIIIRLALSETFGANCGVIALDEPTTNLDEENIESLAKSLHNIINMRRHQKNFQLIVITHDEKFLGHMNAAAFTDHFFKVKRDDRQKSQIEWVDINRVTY

binding result: binds
B1: MBP-Rif2-his (natural protein, S. cerevisiae, UniProt Q06208 1-395, looked up)
chain: MEHVDSDFAPIRRSKKVVDSDKIVKAISDDLEQKNFTVLRKLNLVPIKKSVSSPKVCKPSPVKERVDHVFYQKFKSMALQELGTNYLSISYVPSLSKFLSKNLRSMKNCIVFFDKVEHIHQYAGIDRAVSETLSLVDINVVIIEMNDYLMKEGIQSSKSKECIESMGQASYSGQLDFEASEKPSNHTSDLMMMVMRKINNDESIDHIVYFKFEQLDKLSTSTIIEPSKLTEFINVLSVLEKSNNIAFKVLIYSNNVSISSLLSTSLKKKLNTKYTVFEMPILTCAQEQEYLKKMIKFTFDSGSKLLQSYNSLVTCQLNNKESNLAIFFEFLKVFPHPFTYLFNAYTEIIVQSRTFDELLDKIRNRLTIKNYPHSAYNFKKNQRLPLKLTRKVHDR
notes: Rif2, S. cerevisiae; recombinant full-length Rif2; The MBP tag was cleaved with PreScission protease only after elution from the resin; In the ATPase and nuclease assays purified Rif2-his with MBP cleaved off was used; The construct was a gift from A. Bianchi; also called recombinant Rif2; not shown: MBP, N-terminal, kept; 10xHis, C-terminal, kept
